{"source": "paper PMC5435944", "target": "Mre11-Rad50 (hMR) WT-WT;Nbs1 (Homo sapiens;Homo sapiens, UniProt Q92878;P49959;O60934 1-1312;1-708;1-754, |)", "sequence (Q92878 whole entry, chain 1 of 3)": "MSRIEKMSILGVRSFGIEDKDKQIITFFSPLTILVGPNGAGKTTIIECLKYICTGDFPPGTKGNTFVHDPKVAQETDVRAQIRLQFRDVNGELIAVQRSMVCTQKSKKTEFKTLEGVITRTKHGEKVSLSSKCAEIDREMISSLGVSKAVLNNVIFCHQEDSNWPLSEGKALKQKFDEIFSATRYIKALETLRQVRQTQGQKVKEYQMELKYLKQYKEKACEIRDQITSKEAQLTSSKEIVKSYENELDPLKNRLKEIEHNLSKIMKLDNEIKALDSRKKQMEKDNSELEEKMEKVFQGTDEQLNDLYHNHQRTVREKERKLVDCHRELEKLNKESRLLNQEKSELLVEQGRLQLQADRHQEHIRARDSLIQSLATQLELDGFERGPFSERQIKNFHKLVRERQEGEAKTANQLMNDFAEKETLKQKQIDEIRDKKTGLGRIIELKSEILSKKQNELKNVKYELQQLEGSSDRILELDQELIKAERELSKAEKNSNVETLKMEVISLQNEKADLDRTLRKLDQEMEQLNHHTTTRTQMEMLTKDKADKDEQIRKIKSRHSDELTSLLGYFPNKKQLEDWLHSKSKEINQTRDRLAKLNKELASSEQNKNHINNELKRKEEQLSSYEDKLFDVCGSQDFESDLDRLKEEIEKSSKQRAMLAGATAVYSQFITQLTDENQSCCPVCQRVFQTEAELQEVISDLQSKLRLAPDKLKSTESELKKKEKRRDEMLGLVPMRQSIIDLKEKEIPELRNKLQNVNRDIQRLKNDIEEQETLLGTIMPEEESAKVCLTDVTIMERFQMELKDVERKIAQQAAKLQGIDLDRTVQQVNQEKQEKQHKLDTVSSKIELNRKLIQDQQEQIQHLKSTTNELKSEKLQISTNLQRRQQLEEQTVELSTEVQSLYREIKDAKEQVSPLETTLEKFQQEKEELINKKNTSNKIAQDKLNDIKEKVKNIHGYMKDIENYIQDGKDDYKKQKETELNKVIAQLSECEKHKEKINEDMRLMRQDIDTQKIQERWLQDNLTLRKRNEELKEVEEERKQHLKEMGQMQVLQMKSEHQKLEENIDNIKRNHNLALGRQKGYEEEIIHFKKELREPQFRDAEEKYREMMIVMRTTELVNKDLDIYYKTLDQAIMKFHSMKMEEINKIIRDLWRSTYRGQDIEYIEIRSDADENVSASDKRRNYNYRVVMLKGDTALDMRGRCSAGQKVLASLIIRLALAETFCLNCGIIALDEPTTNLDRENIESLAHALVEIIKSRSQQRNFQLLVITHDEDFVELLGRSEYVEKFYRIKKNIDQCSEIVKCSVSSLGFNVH", "sequence (P49959 whole entry, chain 2 of 3)": "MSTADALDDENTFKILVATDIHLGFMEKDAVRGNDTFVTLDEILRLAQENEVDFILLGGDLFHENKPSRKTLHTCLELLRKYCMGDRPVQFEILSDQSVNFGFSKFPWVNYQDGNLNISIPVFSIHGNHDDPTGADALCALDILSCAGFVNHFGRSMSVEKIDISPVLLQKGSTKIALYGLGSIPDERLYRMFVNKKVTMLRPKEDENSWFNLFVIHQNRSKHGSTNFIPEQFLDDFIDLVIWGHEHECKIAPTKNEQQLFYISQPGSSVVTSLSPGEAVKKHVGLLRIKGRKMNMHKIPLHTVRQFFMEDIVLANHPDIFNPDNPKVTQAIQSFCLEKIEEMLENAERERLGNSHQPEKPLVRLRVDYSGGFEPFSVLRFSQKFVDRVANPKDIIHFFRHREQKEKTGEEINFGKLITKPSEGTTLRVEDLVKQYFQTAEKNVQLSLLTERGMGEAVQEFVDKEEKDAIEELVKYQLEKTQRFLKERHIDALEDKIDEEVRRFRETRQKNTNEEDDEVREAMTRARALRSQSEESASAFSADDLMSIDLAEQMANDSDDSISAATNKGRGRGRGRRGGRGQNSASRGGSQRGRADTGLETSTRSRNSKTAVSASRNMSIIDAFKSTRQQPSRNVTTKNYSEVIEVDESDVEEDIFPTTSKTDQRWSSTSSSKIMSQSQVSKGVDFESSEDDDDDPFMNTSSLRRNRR", "sequence (O60934 whole entry, chain 3 of 3)": "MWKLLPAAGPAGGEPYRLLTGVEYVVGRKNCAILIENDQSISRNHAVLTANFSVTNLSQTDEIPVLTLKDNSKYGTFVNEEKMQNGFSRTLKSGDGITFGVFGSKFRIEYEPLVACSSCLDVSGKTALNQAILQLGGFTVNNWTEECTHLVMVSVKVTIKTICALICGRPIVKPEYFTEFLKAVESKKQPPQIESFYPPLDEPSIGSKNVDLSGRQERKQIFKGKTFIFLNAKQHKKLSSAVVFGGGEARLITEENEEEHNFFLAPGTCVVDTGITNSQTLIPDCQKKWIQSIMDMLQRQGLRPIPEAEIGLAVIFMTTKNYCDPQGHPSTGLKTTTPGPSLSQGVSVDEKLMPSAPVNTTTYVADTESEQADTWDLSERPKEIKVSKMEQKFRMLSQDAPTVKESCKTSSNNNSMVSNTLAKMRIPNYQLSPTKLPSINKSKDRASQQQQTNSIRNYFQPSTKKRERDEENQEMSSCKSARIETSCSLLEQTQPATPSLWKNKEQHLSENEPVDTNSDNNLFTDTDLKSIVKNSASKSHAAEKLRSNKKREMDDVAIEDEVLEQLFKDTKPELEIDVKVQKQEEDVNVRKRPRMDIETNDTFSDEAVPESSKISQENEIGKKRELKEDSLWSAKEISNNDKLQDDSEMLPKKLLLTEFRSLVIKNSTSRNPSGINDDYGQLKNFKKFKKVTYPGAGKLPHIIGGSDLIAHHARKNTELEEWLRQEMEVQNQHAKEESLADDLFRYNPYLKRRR", "assay": "EMSA"}
{"binder": "TP4536/TP4559 (dsDNA, 5' biotin-TEG on strand 1; five phosphorothioate bonds at 3' end of strand 2 (G*A*C*C*C*A)) DNA 1: TGGGTCAACGTGGGCAAAGATGTCCTAGCAATGTAATCGTCTATGACGTT DNA 2: AACGTCATAGACGATTACATTGCTAGGACATCTTTGCCCACGTTGACCCA", "values": [{"measurement": "binding result", "result": "binds"}]}
